These results are taken from patent US20180346564A1 (TEIJIN PHARMA, published 2018).

[ ]: non-standard residue; d: D form. pT = C[C@@H](OP(=O)(O)O)[C@H](N)C(=O)O; pS = N[C@@H](COP(=O)(O)O)C(=O)O

The target of experiment [1] is T1, Peptide No. 1, pS46, H-GLKE(pS)PLQT-OH (human, SMILES CC(C)C[C@H](NC(=O)CN)C(=O)N[C@@H](CCCCN)C(=O)N[C@@H](CCC(=O)O)C(=O)N[C@@H](COP(=O)(O)O)C(=O)N1CCC[C@H]1C(=O)N[C@@H](CC(C)C)C(=O)N[C@@H](CCC(N)=O)C(=O)N[C@H](C(=O)O)[C@@H](C)O).
T1 peptide: H-GLKE[pS]PLQT-OH
In words: ELISA, coated peptide. In outline: (§1)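 Antibody binding was taken as the absorbance signal. Plates coated with peptides or their bovine serum albumin or keyhole limpet hemocyanin conjugates (1 μg/mL in cold PBS, 50 μL/well, overnight at 4 °C) and blocked with 3% BSA-PBS overnight at 4 °C were incubated with purified antibody at 150 ng/mL for 90 minutes at room temperature. Detection used alkaline phosphatase-labelled goat anti-human IgG (H+L) at 2000-fold dilution for 60 minutes, with pNPP developed for 40 minutes and read at 405 nm (reference 550 nm).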

For experiment [2], the target named is T2, Peptide No. 2, pS199, H-SGYS(pS)PGSPGC-OH (human, SMILES N[C@@H](CO)C(=O)NCC(=O)N[C@@H](Cc1ccc(O)cc1)C(=O)N[C@@H](CO)C(=O)N[C@@H](COP(=O)(O)O)C(=O)N1CCC[C@H]1C(=O)NCC(=O)N[C@@H](CO)C(=O)N1CCC[C@H]1C(=O)NCC(=O)N[C@@H](CS)C(=O)O).
T2 peptide: H-SGYS[pS]PGSPGC-OH
In words: ELISA, coated peptide. In outline: as §1
(In general: An ELISA detects its analyte on a solid surface through an enzyme-linked reagent.)

In experiment [3] the target is T3, Peptide No. 3, pS202, H-SSPG(pS)PGTPC-OH (human, SMILES C[C@@H](O)[C@H](NC(=O)CNC(=O)[C@@H]1CCCN1C(=O)[C@H](COP(=O)(O)O)NC(=O)CNC(=O)[C@@H]1CCCN1C(=O)[C@H](CO)NC(=O)[C@@H](N)CO)C(=O)N1CCC[C@H]1C(=O)N[C@@H](CS)C(=O)O).
T3 peptide: H-SSPG[pS]PGTPC-OH
The experiment in a line: ELISA, coated peptide. In outline:
as §1

Experiment [4] has as its target T4, Peptide No. 4, pT212/pS214, H-GCGSPGTPGSRSR(pT)P(pS)LPTPPTREPK-OH (human, phosphothreonine (pT) at peptide position 14 (tau Thr212); phosphoserine (pS) at peptide position 16 (tau Ser214)).
T4 peptide: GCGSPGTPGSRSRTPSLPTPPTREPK
In words: ELISA, coated peptide. The method, boiled down: as §1

The target in experiment [5] is T5, Peptide No. 5, pT217, H-GC-GSRSRTPSLP(pT)PPTREPKKVAVV-OH (human, phosphothreonine (pT) at peptide position 13 (tau Thr217)).
T5 peptide: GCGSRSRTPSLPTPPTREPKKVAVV
In words: ELISA, coated peptide. In outline:
as §1

In experiment [6] the target is T6, Peptide No. 6, pT231, H-KVAVVR(pT)PPKSPS-OH (human).
T6 peptide: H-KVAVVR[pT]PPKSPS-OH
The experiment in a line: ELISA, coated peptide. The method, boiled down:
as §1

Experiment [7] deals with T7, Peptide No. 7, pS396/pS400/pS404, H-GC-RENAKAKTDHGAEIVYK(pS)PVV(pS)GDT(pS)PRHL-OH (human, phosphoserine (pS) at peptide positions 20, 24 and 28 (tau Ser396, Ser400, Ser404)).
T7 peptide: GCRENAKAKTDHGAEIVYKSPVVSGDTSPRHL
In words: ELISA, coated peptide. In outline: as §1

The target in experiment [8] is T8, Peptide No. 8, pS412, H-NV(pS)STGSC-OH (human, SMILES CC(C)[C@H](NC(=O)[C@@H](N)CC(N)=O)C(=O)N[C@@H](COP(=O)(O)O)C(=O)N[C@@H](CO)C(=O)N[C@H](C(=O)NCC(=O)N[C@@H](CO)C(=O)N[C@@H](CS)C(=O)O)[C@@H](C)O).
T8 peptide: H-NV[pS]STGSC-OH
The experiment in a line: ELISA, coated peptide. The method, boiled down:
as §1

The target of experiment [9] is T9, His-tagged non-phosphorylated tau protein 4R0N (human, UniProt P10636 2-758).
T9 construct: Produced by Escherichia coli; negative control in SPR; also called ATGen Cat. No. ATGP0795
In words: SPR Biacore T200, antigen immobilized. How it is done: The binding affinities of the hyperphosphorylated tau protein 4R2N (hpTau), non-phosphorylated tau protein 4R0N, monophosphorylated tau peptide 1×P, triphosphorylated tau peptide 3×P, and non-phosphorylated tau peptide Non P with each antibody were measured with an SPR system Biacore T200 (GE Healthcare Japan), in accordance with the instruction manual for evaluation attached to the system.
The His-tagged hpTau or Tau proteins were each immobilized on a sensor chip using an HBS-N buffer (code No. BR-1003-69) as the immobilization reaction solution and allowing a nickel chloride solution to react with the NTA sensor chip for bonding Ni to NTA. Subsequently, the sensor chip was activated with a mixed solution of N-ethyl-N′-(3-dimethylaminopropyl)-carbodiimide hydrochloride (1-ethyl-3-(3-dimethylaminopropyl)carbodiimide hydrochloride: EDC) and N-hydroxysuccinimide (NHS). A solution of each of the His-tagged proteins, adjusted to a concentration of 100 to 500 ng/mL with a 4-(2-hydroxyethyl)-1-piperazineethanesulfonic acid (HEPES) buffer (0.01 M HEPES, 150 mM KCl, 2 mM DTT, 1 mM EDTA, pH 7.2), was applied to the sensor chip, whereby the protein was immobilized on the sensor chip through covalent bonds with the Ni-NTA. The remaining active NHS was blocked with ethanolamine, and Ni ions were removed with an EDTA solution (Ni-affinity amine coupling: see International Publication No. WO2005/022156). The antigen peptides (1×P, 3×P, and Non P) were each immobilized on a sensor chip by activating the NTA sensor chip with a mixed solution of N-ethyl-N′-(3-dimethylaminopropyl)-carbodiimide (EDC) hydrochloride and N-hydroxysuccinimide (NHS), and then applying a solution of the antigen peptide diluted with a 10 mM sodium acetate buffer (pH: 4 to 4.5) to 1 to 10 μM to the sensor chip, whereby the peptide was covalently bound to the sensor chip. The remaining active NHS was blocked with ethanolamine. Thus, sensor chips immobilized respectively with the proteins and peptides mentioned above were produced.
A CAPS buffer (pH 10.5) was applied to these sensor chips at 37° C. to stabilize the protein- or peptide-immobilized surfaces of the sensor chips.

T9 sequence (P10636 other isoform, or with tags, fused parts or gaps limits assumed): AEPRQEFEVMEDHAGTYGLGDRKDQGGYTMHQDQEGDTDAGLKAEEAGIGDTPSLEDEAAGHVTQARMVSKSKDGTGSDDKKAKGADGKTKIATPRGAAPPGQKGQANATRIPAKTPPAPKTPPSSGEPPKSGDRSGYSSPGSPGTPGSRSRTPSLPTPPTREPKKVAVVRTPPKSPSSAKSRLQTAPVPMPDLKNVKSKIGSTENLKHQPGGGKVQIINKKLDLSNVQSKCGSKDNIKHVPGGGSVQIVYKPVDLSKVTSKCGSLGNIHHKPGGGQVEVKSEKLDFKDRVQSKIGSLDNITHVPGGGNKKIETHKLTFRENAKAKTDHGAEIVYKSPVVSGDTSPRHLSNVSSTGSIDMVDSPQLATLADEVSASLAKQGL

B1: humanized antibody L48H12 (antibody, human IgG1, kappa, V domains shown)
VH: EVQLVESGGGLVQPGGSLRLSCAASGFAFNSFALNWVRQAPGKGLEWVGHIRSKTNNYATFYADSVKDRFTVSRDDSKNTAYLQMNSLKTEDTATYYCVRRGPRDSWFGYWGQGTLVTVSS
VL: DIVMTQSPLSLPVTLGDPASISCRSSQNIVHSNGNTYLEWYQQKPGQSPQLLIYTVSNRFSGVPDRFSGSGSGTDFTLKISRVEAEDLGVYYCFQGSHLPLTFGGGTKVEIKR
notes: VL48/VH12, human IgG1/kappa
Turning to B1, the binding result in experiment [1], in [2], in [3], in experiment [4], in [5] and in experiment [6] was “no binding (tested: OD value <0.5; antibody 150 ng/mL)” throughout. Also, the binding result in [7] is reported as “no binding (tested: OD value <0.5; antibody 150 ng/mL)”; in [8], “no binding (tested: OD value <0.5; antibody 150 ng/mL)”; in experiment [9], “no binding (tested: 0.2 to 1 nM)”.

B2: humanized antibody L48H62 (antibody, human IgG1, kappa, V domains shown)
VH: EVQLVESGGGLVQPGGSLRLSCAASGFAFNSFALNWVRQAPGKGLEWVVHIRSKTNNYATFYADSVKDRFTVSRDDSKNTAYLQMNSLKTEDTATYYCVRRGPRDSWFGYWGQGTLVTVSS
VL: DIVMTQSPLSLPVTLGDPASISCRSSQNIVHSNGNTYLEWYQQKPGQSPQLLIYTVSNRFSGVPDRFSGSGSGTDFTLKISRVEAEDLGVYYCFQGSHLPLTFGGGTKVEIKR
notes: VL48/VH62, human IgG1/kappa
With B2, the binding result in [1], in [2], in [3], in experiment [4], in [5] and in experiment [6] was “no binding (tested: OD value <0.5; antibody 150 ng/mL)” throughout. Besides, the figures for the binding result in [7], in [8] and in experiment [9] were “no binding (tested: OD value <0.5; antibody 150 ng/mL)”, “no binding (tested: OD value <0.5; antibody 150 ng/mL)” and “no binding (tested: 0.2 to 1 nM)”, respectively.

B3: humanized antibody L48H64 (antibody, human IgG1, kappa, V domains shown)
VH: EVQLVESGGGLVQPGGSLRLSCAASGFTFNSFALNWVRQAPGKGLEWVVHIRSKTNNYATFYAASVKDRFTVSRDDSQNTAYLQMNSLKTEDTATYYCVRRGPRDSWFGYWGQGTLVTVSS
VL: DIVMTQSPLSLPVTLGDPASISCRSSQNIVHSNGNTYLEWYQQKPGQSPQLLIYTVSNRFSGVPDRFSGSGSGTDFTLKISRVEAEDLGVYYCFQGSHLPLTFGGGTKVEIKR
notes: VL48/VH64, human IgG1/kappa
B3: the binding result in experiment [1], in experiment [2], in [3], in experiment [4], in experiment [5] and in experiment [6] was “no binding (tested: OD value <0.5; antibody 150 ng/mL)” throughout. The binding result was “no binding (tested: OD value <0.5; antibody 150 ng/mL)” in experiment [7], “no binding (tested: OD value <0.5; antibody 150 ng/mL)” in experiment [8] and “no binding (tested: 0.2 to 1 nM)” in experiment [9].

B4: humanized antibody L48H47 (antibody, human IgG1, kappa, V domains shown)
VH: EVQLVESGGGLVQPGGSLRLSCAASGFAFNSFALNWVRQAPGKGLEWVGHIRSKTNNYATFYAASVKDRFTVSRDDSQNTAYLQMNSLKTEDTATYYCVRRGPRDSWFGYWGQGTLVTVSS
VL: DIVMTQSPLSLPVTLGDPASISCRSSQNIVHSNGNTYLEWYQQKPGQSPQLLIYTVSNRFSGVPDRFSGSGSGTDFTLKISRVEAEDLGVYYCFQGSHLPLTFGGGTKVEIKR
notes: VL48/VH47, human IgG1/kappa
Regarding B4, the binding result in experiment [1], in experiment [2], in experiment [3], in [4], in experiment [5] and in experiment [6] was “no binding (tested: OD value <0.5; antibody 150 ng/mL)” each time. Further, the binding result is reported as “no binding (tested: OD value <0.5; antibody 150 ng/mL)” in experiment [7], “no binding (tested: OD value <0.5; antibody 150 ng/mL)” in experiment [8] and “no binding (tested: 0.2 to 1 nM)” in experiment [9].

B5: humanized antibody L48H61 (antibody, human IgG1, kappa, V domains shown)
VH: EVQLVESGGGLVQPGGSLRLSCAASGFTFNSFALNWVRQAPGKGLEWVVHIRSKTNNYATFYADSVKDRFTVSRDDSKNTAYLQMNSLKTEDTATYYCVRRGPRDSWFGYWGQGTLVTVSS
VL: DIVMTQSPLSLPVTLGDPASISCRSSQNIVHSNGNTYLEWYQQKPGQSPQLLIYTVSNRFSGVPDRFSGSGSGTDFTLKISRVEAEDLGVYYCFQGSHLPLTFGGGTKVEIKR
notes: VL48/VH61, human IgG1/kappa
Turning to B5, the binding result in experiment [1], in experiment [2], in experiment [3], in [4], in [5] and in experiment [6] was “no binding (tested: OD value <0.5; antibody 150 ng/mL)” in each case. Further, the binding result in experiment [7] is reported as “no binding (tested: OD value <0.5; antibody 150 ng/mL)”; in [8], “no binding (tested: OD value <0.5; antibody 150 ng/mL)”; in [9], “no binding (tested: 0.2 to 1 nM)”.
